Data on three molecules can be found in US20040009502A1 (published 2004).

Experiment [1] concerns the target T1, mLATS2b fused to the GAL4 DNA binding domain (pGBKT7-mLATS2b) (mouse, UniProt P04386 1-147 (Saccharomyces cerevisiae entry)).
T1 construct: expressed in yeast AH109; also called clone 3-1; mLATS2/2b
As to the kind of experiment: yeast two-hybrid (growth on quadruple dropout plates).

The target of experiment [2] is T2, mLATS2N96 fused to the GAL4 DNA binding domain (pGBKT7-mLATS2N96) (mouse, UniProt P04386 1-147 (Saccharomyces cerevisiae entry)).
T2 construct: Made by removing the Pst I fragment from pGBKT7-mLATS2b; also called N-terminal 96 amino acids of mLATS2/2b
The description is as above.

The target in experiment [3] is T3, mLATS2 fused to the GAL4 DNA binding domain (pGBKT7-mLATS2) (mouse, UniProt P04386 1-147; Q7TSJ6 1-1042).
T3 construct: Made by inserting the Bsm I-Xho I fragment of pcDNA3-mLATS2 into pGBKT7-mLATS2b; also called mLATS2/2b
The description is as above.

The target of experiment [4] is T1, mLATS2b fused to the GAL4 DNA binding …. Put plainly: yeast two-hybrid.

B1: mRBT1N121 fused to the GAL4 activation domain (pGADT7-mRBT1N121) (other, mouse, UniProt Q9ERC3 1-121, looked up, not shown: large carriers)
chain: MGGLKRKHSDLEEEEEEEKWDWSPTALRSYQQALLRISLDKVQRSLGPRAPSLRRHVLIHNTLQQLQAAIRLAPAPALPPEPLFLGEEDFSLSTTIGSILRELDTSMDEMEPPLNPAASSS
notes: Made by removing the Xho I fragment from pGADT7-mRBT1
B1: the binding result in experiment [1] is given as “binds”; in experiment [2], “no binding”.

B2: mRBT1C76 fused to the GAL4 activation domain (pGADT7-mRBT1C76) (other, UniProt P04386 768-881, looked up)
chain: ANFNQSGNIADSSLSFTFTNSSNGPNLITTQTNSQALSQPIASSNVHDNFMNNEITASKIDDGNNSKPLSPGWTDQTAYNAFGITTGMFNTTTMDDVYNYLFDDEDTPPNPKKEPQNEIVSQADPVFLEALSSRYLGDSGLDDFFLDIDTSAVEKDVALPPPEPPHSLFCSPGSWEWNELDHIMEIILGS
notes: PCR product encoding the C-terminal 76 amino acids of mRBT1 cloned into EcoR I and Sma I sites of pGADT7; also called C-terminal 76 amino acids of mRBT1
Turning to B2, the binding result in experiment [1] and in experiment [3] was “no binding” throughout.

B3: mouse Replication Protein Binding Trans-Activator (mRBT1) fused to the GAL4 activation domain (pGADT7-mRBT1) (other, UniProt Q9ERC3 1-197, looked up, not shown: large carriers)
chain: MGGLKRKHSDLEEEEEEEKWDWSPTALRSYQQALLRISLDKVQRSLGPRAPSLRRHVLIHNTLQQLQAAIRLAPAPALPPEPLFLGEEDFSLSTTIGSILRELDTSMDEMEPPLNPAASSSPQNEIVSQADPVFLEALSSRYLGDSGLDDFFLDIDTSAVEKDVALPPPEPPHSLFCSPGSWEWNELDHIMEIILGS
B3: the binding result in experiment [4] is on record as “binds”; in experiment [2], “no binding”.
